Experimental data published in article PMC9482650, “Quantitative fragmentomics allow affinity mapping of interactomes” (Nature Communications, 2022).

Legend:
Assay in all cases: holdup assay
Design in all cases: key: below the threshold = too weak to quantify, mostly under pKd 3.1 to 4
APBA3_1, O96018 = molecular target: T1, APBA3_1, O96018
T1 sequence (O96018 389-490, limits assumed, looked up): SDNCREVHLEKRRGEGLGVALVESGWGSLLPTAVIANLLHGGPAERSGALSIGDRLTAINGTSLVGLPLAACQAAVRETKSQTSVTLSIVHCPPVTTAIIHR

MAST2, Q6P0Q8 = molecular target: MAST2, Q6P0Q8
GIPC2, Q8TF65 = molecular target: GIPC2, Q8TF65
MAGI2_3, Q86UL8 = molecular target: MAGI2_3, Q86UL8
HTRA4, P83105 = molecular target: T2, HTRA4, P83105
T2 sequence (P83105 378-476, limits assumed, looked up): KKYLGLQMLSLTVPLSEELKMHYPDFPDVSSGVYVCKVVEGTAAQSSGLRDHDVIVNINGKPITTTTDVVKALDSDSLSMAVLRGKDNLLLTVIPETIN

DLG4_3, P78352 = molecular target: DLG4_3, P78352
NOS1, P29475 = molecular target: NOS1, P29475
MAGI2_6, Q86UL8 = molecular target: MAGI2_6, Q86UL8
Inadl_9, Q8NI35 = molecular target: Inadl_9, Q8NI35
DLG1_2, Q12959 = molecular target: DLG1_2, Q12959
MPDZ_12, O75970 = molecular target: T3, MPDZ_12, O75970
T3 sequence (O75970 1857-1958, limits assumed, looked up): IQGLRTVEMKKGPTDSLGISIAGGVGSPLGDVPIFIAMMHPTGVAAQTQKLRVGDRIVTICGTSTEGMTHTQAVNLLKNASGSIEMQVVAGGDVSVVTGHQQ

FRMPD2_1, Q68DX3 = molecular target: FRMPD2_1, Q68DX3
GRASP, Q7Z6J2 = molecular target: GRASP, Q7Z6J2
APBA1_2, Q02410 = molecular target: T4, APBA1_2, Q02410
T4 sequence (Q02410 742-832, limits assumed, looked up): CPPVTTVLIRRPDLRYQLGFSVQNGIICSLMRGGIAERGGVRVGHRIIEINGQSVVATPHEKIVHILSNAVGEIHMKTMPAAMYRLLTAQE

RADIL, Q96JH8 = molecular target: T5, RADIL, Q96JH8
T5 sequence (Q96JH8 971-1071, limits assumed, looked up): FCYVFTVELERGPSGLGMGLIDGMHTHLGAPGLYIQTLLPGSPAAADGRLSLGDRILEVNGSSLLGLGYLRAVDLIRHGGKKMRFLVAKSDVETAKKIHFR

LNX2_3, Q8N448 = molecular target: T6, LNX2_3, Q8N448
T6 sequence (Q8N448 463-564, limits assumed, looked up): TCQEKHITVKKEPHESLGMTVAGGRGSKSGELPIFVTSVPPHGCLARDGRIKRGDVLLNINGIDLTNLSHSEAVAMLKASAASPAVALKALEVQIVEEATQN

RHPN1, Q8TCX5 = molecular target: T7, RHPN1, Q8TCX5
T7 sequence (Q8TCX5 508-602, limits assumed, looked up): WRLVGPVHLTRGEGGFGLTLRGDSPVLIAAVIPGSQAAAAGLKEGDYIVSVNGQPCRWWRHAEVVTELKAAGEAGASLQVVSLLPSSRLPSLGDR

NHERF4_1, Q86UT5-2 = molecular target: NHERF4_1, Q86UT5-2
NHERF3_4, Q5T2W1 = molecular target: T8, NHERF3_4, Q5T2W1
T8 sequence (Q5T2W1 373-468, limits assumed, looked up): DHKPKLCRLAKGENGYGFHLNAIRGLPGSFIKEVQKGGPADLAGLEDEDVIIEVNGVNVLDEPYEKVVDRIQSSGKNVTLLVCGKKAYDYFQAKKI

Inadl_8, Q8NI35 = molecular target: Inadl_8, Q8NI35
GORASP2, Q9H8Y8 = molecular target: GORASP2, Q9H8Y8
SNTA1, Q13424 = molecular target: T9, SNTA1, Q13424
T9 sequence (Q13424 82-180, limits assumed, looked up): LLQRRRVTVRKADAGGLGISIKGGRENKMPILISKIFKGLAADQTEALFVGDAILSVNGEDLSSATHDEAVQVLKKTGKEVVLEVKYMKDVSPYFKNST

LIN7C, Q9NUP9 = molecular target: T10, LIN7C, Q9NUP9
T10 sequence (Q9NUP9 88-185, limits assumed, looked up): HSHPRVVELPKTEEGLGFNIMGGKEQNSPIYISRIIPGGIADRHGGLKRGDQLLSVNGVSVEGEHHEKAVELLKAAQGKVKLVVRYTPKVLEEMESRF

SCRIB_3, Q14160 = molecular target: SCRIB_3, Q14160
AHNAK1, Q09666 = molecular target: AHNAK1, Q09666
MPDZ_10, O75970 = molecular target: T11, MPDZ_10, O75970
T11 sequence (O75970 1624-1722, limits assumed, looked up): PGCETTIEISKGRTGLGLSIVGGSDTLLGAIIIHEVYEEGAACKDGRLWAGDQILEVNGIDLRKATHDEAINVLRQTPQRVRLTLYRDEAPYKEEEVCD

PTPN3, P26045 = molecular target: PTPN3, P26045
[1] = plain residues with an end cap or a label only (N-terminal biotin on a linker: ahx)
[2] = plain residues with an end cap or a label only (N-terminal biotin on a linker: ttds)

Chain of DLG1_2, Q12959 (Q12959 314-412): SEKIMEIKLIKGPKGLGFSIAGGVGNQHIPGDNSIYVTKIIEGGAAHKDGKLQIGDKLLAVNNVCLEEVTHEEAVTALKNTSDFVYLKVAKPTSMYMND
Chain of MAGI2_6, Q86UL8 (Q86UL8 1141-1229): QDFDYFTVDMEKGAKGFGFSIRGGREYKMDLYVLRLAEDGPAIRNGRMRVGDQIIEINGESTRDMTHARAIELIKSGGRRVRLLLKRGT
Chain of Inadl_8, Q8NI35 (Q8NI35 1425-1530): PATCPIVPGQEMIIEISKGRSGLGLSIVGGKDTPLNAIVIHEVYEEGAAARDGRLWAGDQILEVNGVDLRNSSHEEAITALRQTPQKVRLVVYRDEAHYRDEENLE
Chain of FRMPD2_1, Q68DX3 (Q68DX3 770-861): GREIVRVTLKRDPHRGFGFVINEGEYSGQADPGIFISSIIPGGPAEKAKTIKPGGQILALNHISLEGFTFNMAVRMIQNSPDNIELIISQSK
Chain of DLG4_3, P78352 (P78352 306-403): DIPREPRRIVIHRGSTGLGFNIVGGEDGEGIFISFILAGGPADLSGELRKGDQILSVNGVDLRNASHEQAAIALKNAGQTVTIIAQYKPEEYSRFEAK
Chain of MAST2, Q6P0Q8 (Q6P0Q8 1099-1202): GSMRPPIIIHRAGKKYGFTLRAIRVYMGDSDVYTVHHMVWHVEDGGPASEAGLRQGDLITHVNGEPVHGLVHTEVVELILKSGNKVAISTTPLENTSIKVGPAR
Chain of NOS1, P29475 (P29475 9-101): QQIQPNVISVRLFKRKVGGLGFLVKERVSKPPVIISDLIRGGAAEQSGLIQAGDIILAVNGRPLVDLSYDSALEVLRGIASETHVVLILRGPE
Chain of GRASP, Q7Z6J2 (Q7Z6J2 96-193): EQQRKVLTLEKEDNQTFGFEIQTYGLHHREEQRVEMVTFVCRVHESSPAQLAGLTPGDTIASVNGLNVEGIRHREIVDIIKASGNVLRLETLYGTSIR
Chain of AHNAK1, Q09666 (Q09666 4-100): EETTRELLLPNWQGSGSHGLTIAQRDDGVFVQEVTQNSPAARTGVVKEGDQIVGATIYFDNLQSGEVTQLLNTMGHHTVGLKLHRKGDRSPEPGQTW
Chain of SCRIB_3, Q14160 (Q14160 999-1103): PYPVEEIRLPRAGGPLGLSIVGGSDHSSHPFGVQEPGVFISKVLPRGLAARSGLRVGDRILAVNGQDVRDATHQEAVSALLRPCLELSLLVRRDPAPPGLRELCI
Chain of Inadl_9, Q8NI35 (Q8NI35 1530-1615): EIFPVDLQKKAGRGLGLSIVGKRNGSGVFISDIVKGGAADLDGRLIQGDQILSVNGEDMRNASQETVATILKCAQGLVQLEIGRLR
Chain of GIPC2, Q8TF65 (Q8TF65 112-203): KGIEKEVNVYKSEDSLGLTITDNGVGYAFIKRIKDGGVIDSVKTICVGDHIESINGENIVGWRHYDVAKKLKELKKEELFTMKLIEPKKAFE
Chain of PTPN3, P26045 (P26045 505-587): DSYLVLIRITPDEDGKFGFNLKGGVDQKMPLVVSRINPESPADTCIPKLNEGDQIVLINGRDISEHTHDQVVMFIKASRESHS
Chain of MAGI2_3, Q86UL8 (Q86UL8 600-682): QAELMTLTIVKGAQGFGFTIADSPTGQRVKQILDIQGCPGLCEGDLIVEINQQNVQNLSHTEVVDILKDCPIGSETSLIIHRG
Chain of NHERF4_1, Q86UT5-2 (Q86UT5 other isoform, or with tags, fused parts or gaps): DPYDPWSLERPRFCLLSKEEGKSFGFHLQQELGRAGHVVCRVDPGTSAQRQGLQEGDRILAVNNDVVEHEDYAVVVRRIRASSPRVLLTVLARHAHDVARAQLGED

## TEAKLTETNA [MYO18A, Q92614]
APBA3_1, O96018; [1]
  pKd: below the threshold
MAST2, Q6P0Q8; [1]
  pKd: below the threshold
GIPC2, Q8TF65; [1]
  pKd: below the threshold
MAGI2_3, Q86UL8; [1]
  pKd: below the threshold
HTRA4, P83105; [1]
  pKd: below the threshold
DLG4_3, P78352; [1]
  pKd: below the threshold
NOS1, P29475; [1]
  pKd: below the threshold
MAGI2_6, Q86UL8; [1]
  pKd: below the threshold
Inadl_9, Q8NI35; [1]
  pKd: below the threshold
DLG1_2, Q12959; [1]
  pKd: below the threshold
MPDZ_12, O75970; [1]
  pKd: below the threshold
FRMPD2_1, Q68DX3; [1]
  pKd: below the threshold
GRASP, Q7Z6J2; [1]
  pKd: below the threshold
APBA1_2, Q02410; [1]
  pKd: below the threshold
RADIL, Q96JH8; [1]
  pKd: below the threshold
LNX2_3, Q8N448; [1]
  pKd: below the threshold
RHPN1, Q8TCX5; [1]
  pKd: below the threshold
NHERF4_1, Q86UT5-2; [1]
  pKd: below the threshold
NHERF3_4, Q5T2W1; [1]
  pKd: below the threshold
Inadl_8, Q8NI35; [1]
  pKd: below the threshold
GORASP2, Q9H8Y8; [1]
  pKd: below the threshold
SNTA1, Q13424; [1]
  pKd: below the threshold
LIN7C, Q9NUP9; [1]
  pKd: below the threshold
SCRIB_3, Q14160; [1]
  pKd: below the threshold
AHNAK1, Q09666; [1]
  pKd: below the threshold
MPDZ_10, O75970; [1]
  pKd: below the threshold
PTPN3, P26045; [1]
  pKd: below the threshold

## QSARYRDTEL [TJP2, Q9UDY2]
APBA3_1, O96018; [2]
  pKd: below the threshold
MAST2, Q6P0Q8; [2]
  pKd: 5.7
GIPC2, Q8TF65; [2]
  pKd: below the threshold
MAGI2_3, Q86UL8; [2]
  pKd: below the threshold
HTRA4, P83105; [2]
  pKd: below the threshold
DLG4_3, P78352; [2]
  pKd: below the threshold
NOS1, P29475; [2]
  pKd: 3.75
MAGI2_6, Q86UL8; [2]
  pKd: 4.36
Inadl_9, Q8NI35; [2]
  pKd: below the threshold
DLG1_2, Q12959; [2]
  pKd: 3.77
MPDZ_12, O75970; [2]
  pKd: below the threshold
FRMPD2_1, Q68DX3; [2]
  pKd: below the threshold
GRASP, Q7Z6J2; [2]
  pKd: below the threshold
APBA1_2, Q02410; [2]
  pKd: below the threshold
RADIL, Q96JH8; [2]
  pKd: below the threshold
LNX2_3, Q8N448; [2]
  pKd: 3.53
RHPN1, Q8TCX5; [2]
  pKd: 4.03
NHERF4_1, Q86UT5-2; [2]
  pKd: 3.73
NHERF3_4, Q5T2W1; [2]
  pKd: 3.81
Inadl_8, Q8NI35; [2]
  pKd: below the threshold
GORASP2, Q9H8Y8; [2]
  pKd: below the threshold
SNTA1, Q13424; [2]
  pKd: 4.38
LIN7C, Q9NUP9; [2]
  pKd: below the threshold
SCRIB_3, Q14160; [2]
  pKd: 4.65
AHNAK1, Q09666; [2]
  pKd: 3.75
MPDZ_10, O75970; [2]
  pKd: below the threshold
PTPN3, P26045; [2]
  pKd: 4.98

## GQDSREETQL [KCNT2, Q6UVM3]
APBA3_1, O96018; [2]
  pKd: below the threshold
MAST2, Q6P0Q8; [2]
  pKd: 5.91
GIPC2, Q8TF65; [2]
  pKd: 3.79
MAGI2_3, Q86UL8; [2]
  pKd: below the threshold
HTRA4, P83105; [2]
  pKd: below the threshold
DLG4_3, P78352; [2]
  pKd: below the threshold
NOS1, P29475; [2]
  pKd: 4.05
MAGI2_6, Q86UL8; [2]
  pKd: below the threshold
Inadl_9, Q8NI35; [2]
  pKd: below the threshold
DLG1_2, Q12959; [2]
  pKd: 4.2
MPDZ_12, O75970; [2]
  pKd: below the threshold
FRMPD2_1, Q68DX3; [2]
  pKd: below the threshold
GRASP, Q7Z6J2; [2]
  pKd: below the threshold
APBA1_2, Q02410; [2]
  pKd: 3.79
RADIL, Q96JH8; [2]
  pKd: below the threshold
LNX2_3, Q8N448; [2]
  pKd: below the threshold
RHPN1, Q8TCX5; [2]
  pKd: 5
NHERF4_1, Q86UT5-2; [2]
  pKd: 4.06
NHERF3_4, Q5T2W1; [2]
  pKd: below the threshold
Inadl_8, Q8NI35; [2]
  pKd: below the threshold
GORASP2, Q9H8Y8; [2]
  pKd: below the threshold
SNTA1, Q13424; [2]
  pKd: 4.06
LIN7C, Q9NUP9; [2]
  pKd: below the threshold
SCRIB_3, Q14160; [2]
  pKd: 5.07
AHNAK1, Q09666; [2]
  pKd: below the threshold
MPDZ_10, O75970; [2]
  pKd: below the threshold
PTPN3, P26045; [2]
  pKd: 4.9

## VLRLQSETSV [VANGL1, Q8TAA9]
APBA3_1, O96018; [2]
  pKd: below the threshold
MAST2, Q6P0Q8; [2]
  pKd: 5.56
GIPC2, Q8TF65; [2]
  pKd: 3.75
MAGI2_3, Q86UL8; [2]
  pKd: below the threshold
HTRA4, P83105; [2]
  pKd: below the threshold
DLG4_3, P78352; [2]
  pKd: 4.51
NOS1, P29475; [2]
  pKd: 3.75
MAGI2_6, Q86UL8; [2]
  pKd: 4.05
Inadl_9, Q8NI35; [2]
  pKd: below the threshold
DLG1_2, Q12959; [2]
  pKd: 4.86
MPDZ_12, O75970; [2]
  pKd: below the threshold
FRMPD2_1, Q68DX3; [2]
  pKd: below the threshold
GRASP, Q7Z6J2; [2]
  pKd: below the threshold
APBA1_2, Q02410; [2]
  pKd: 3.6
RADIL, Q96JH8; [2]
  pKd: below the threshold
LNX2_3, Q8N448; [2]
  pKd: below the threshold
RHPN1, Q8TCX5; [2]
  pKd: 4.37
NHERF4_1, Q86UT5-2; [2]
  pKd: below the threshold
NHERF3_4, Q5T2W1; [2]
  pKd: below the threshold
Inadl_8, Q8NI35; [2]
  pKd: below the threshold
GORASP2, Q9H8Y8; [2]
  pKd: below the threshold
SNTA1, Q13424; [2]
  pKd: 4.52
LIN7C, Q9NUP9; [2]
  pKd: 3.94
SCRIB_3, Q14160; [2]
  pKd: 4.54
AHNAK1, Q09666; [2]
  pKd: below the threshold
MPDZ_10, O75970; [2]
  pKd: below the threshold
PTPN3, P26045; [2]
  pKd: 4.97

## IDNDTESTAL [ARHGAP17, Q68EM7]
APBA3_1, O96018; [2]
  pKd: below the threshold
MAST2, Q6P0Q8; [2]
  pKd: below the threshold
GIPC2, Q8TF65; [2]
  pKd: below the threshold
MAGI2_3, Q86UL8; [2]
  pKd: below the threshold
HTRA4, P83105; [2]
  pKd: below the threshold
DLG4_3, P78352; [2]
  pKd: below the threshold
NOS1, P29475; [2]
  pKd: 3.95
MAGI2_6, Q86UL8; [2]
  pKd: 3.79
Inadl_9, Q8NI35; [2]
  pKd: below the threshold
DLG1_2, Q12959; [2]
  pKd: below the threshold
MPDZ_12, O75970; [2]
  pKd: below the threshold
FRMPD2_1, Q68DX3; [2]
  pKd: below the threshold
GRASP, Q7Z6J2; [2]
  pKd: 4.77
APBA1_2, Q02410; [2]
  pKd: 3.89
RADIL, Q96JH8; [2]
  pKd: below the threshold
LNX2_3, Q8N448; [2]
  pKd: below the threshold
RHPN1, Q8TCX5; [2]
  pKd: 4.47
NHERF4_1, Q86UT5-2; [2]
  pKd: 4.16
NHERF3_4, Q5T2W1; [2]
  pKd: 4.78
Inadl_8, Q8NI35; [2]
  pKd: below the threshold
GORASP2, Q9H8Y8; [2]
  pKd: below the threshold
SNTA1, Q13424; [2]
  pKd: 3.73
LIN7C, Q9NUP9; [2]
  pKd: below the threshold
SCRIB_3, Q14160; [2]
  pKd: 4.57
AHNAK1, Q09666; [2]
  pKd: below the threshold
MPDZ_10, O75970; [2]
  pKd: below the threshold
PTPN3, P26045; [2]
  pKd: 4.76
